Source: US20230086069A1 (SYSTIMMUNE, published 2023)

T1: His-tagged human CD19 (human, UniProt P15391 20-291, limits assumed)
T1 construct: not shown: His tag
T1 sequence (looked up): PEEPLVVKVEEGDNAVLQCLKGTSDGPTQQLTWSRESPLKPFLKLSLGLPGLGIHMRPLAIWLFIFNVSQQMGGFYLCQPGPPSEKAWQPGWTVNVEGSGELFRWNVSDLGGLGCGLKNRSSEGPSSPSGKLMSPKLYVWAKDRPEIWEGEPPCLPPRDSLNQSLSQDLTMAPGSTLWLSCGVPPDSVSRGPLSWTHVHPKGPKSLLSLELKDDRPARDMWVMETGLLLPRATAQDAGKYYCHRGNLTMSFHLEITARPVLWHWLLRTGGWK

T2: human CD19 protein (R&D Biosystems Cat #9269-CD-050) (human, UniProt P15391 20-291)
T2 sequence (looked up): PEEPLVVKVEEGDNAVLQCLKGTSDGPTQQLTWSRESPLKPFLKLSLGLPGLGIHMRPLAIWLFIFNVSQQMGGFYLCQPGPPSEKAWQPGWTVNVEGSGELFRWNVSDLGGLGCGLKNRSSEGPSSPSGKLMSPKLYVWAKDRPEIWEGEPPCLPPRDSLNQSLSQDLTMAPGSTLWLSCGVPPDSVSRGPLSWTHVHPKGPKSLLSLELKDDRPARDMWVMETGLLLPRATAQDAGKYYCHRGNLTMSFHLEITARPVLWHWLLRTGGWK


What was measured:
His-tagged human CD19 [1] = biological target: T1, His-tagged human CD19; assay: BLI (Octet), scFv-His coupled covalently to AR2G sensor, His-tagged human CD19 as analyte
Experimental: To assess the binding affinity of SI-63R1, Octet binding assay was used. The SI-63R1 protein was loaded via covalent coupling onto AR2G sensors at 10 ug/ml and bound to a serial dilution of His-tagged human CD19 (1:2.5 dilutions from the highest concentration of 200 nM).

[2] = biological target: T2, human CD19 protein (R&D Biosystems Cat …); assay: BLI (Octet); human CD19
Experimental: (§1) The purified SI-63C1, SI-63C2, and SI-34C1 antibodies were tested for their binding affinity using biolayer interferometry (ForteBio OctetRED 384). The antibodies were bound to anti-human Fc biosensors, and human CD19 protein (R&D Biosystems Cat #9269-CD-050) was used as the analyte in a 4-point series of 2-fold dilutions with the highest concentration starting at 200 nM.

[3] = biological target: T2, human CD19 protein (R&D Biosystems Cat …); assay: BLI (Octet), antibody on anti-human Fc biosensor, human CD19 as analyte
Experimental: as §1

His-tagged human CD19 [4] = biological target: T1, His-tagged human CD19; assay: BLI (Octet), scFv-monoFc on AHC sensor, His-tagged human CD19 as analyte, global 1:1 fit
Text: To further screen and compare all humanized peptides, the DNA sequences encoding humanized CD19 binding variants (H1, H2, H3, H4, H5 and H6) were configured to a scFv-monoFc format and cloned (Dimitrov et al. 2012.) (SEQ ID NO. 55,57,59,61,63,65). […] They were given names as SI-63SF1(H1), SI-63SF2(H2), SI-63SF4(H3), SI-63SF5(H4), SI-63SF6(H5), and SI-63SF7(H6). Following the expression and purification processes, all six proteins were characterized for their physical characters, including yields (titer), purity (% HMW and aSEC), binding affinity (KD, Kon, and Kdis) to human CD19, and thermal stability. For Octet assay, the scFv-monoFc fusion proteins were loaded via AHC sensors at 10 ug/ml and bound to a serial dilution of His-tagged human CD19 (1:2.5 dilutions starting from the highest concentration of 200 nM), and the resulting global fit to a 1:1 binding model. For the DLS analysis, the temperature was ramped from 25° C. to 75° C. at 0.5° C./min while the radius of the scFv-monoFc fusion proteins (at 1 mg/ml) was monitored by a Wyatt DynaPro Plate Reader III.

Kd (His-tagged human CD19 [4]) [nM] | koff (His-tagged human CD19 [4]) [s⁻¹] | Binder | also measured
 |  | SI-63R1 (humanized anti-CD19 H1 scFv-His-tagged protein) (scFv, also called SI-63R1(H1)) scFv: ENVLTQSPASLSASPGERVTITCSASSSVSYMHWYQQKPGQAPKLWIYDTSKLASGVPSRFSGSGSGNDHTLTISSMEPEDFATYYCFQGSVYPFTFGQGTKLEIKGGGGSGGGGSGGGGSGGGGSQVTLKESGPGLVQPGQTLRLTCAFSGFSLSTSGMGVGWIRQPPGKGLEWLAHIWWDDDKRYNPALKSRLTISKDTSKNQVYLQMNSLDAEDTAVYYCARMELWSYYFDYWGQGTLVTVSSGSHHHHHH | Kd (His-tagged human CD19 [1]): 1.83 nM; koff (His-tagged human CD19 [1]): 9.15e-05 s⁻¹
 |  | SI-34C1 (recombinant mAb with 21D4 human anti-CD19 variable sequence) (antibody, human IgG1, kappa, V domains shown, also called human anti-CD19 antibody (21D4)) VH: EVQLVQSGAEVKKPGESLKISCKGSGYSFSSSWIGWVRQAPGKGLEWMGIIYPDDSDTRYSPSFQGQVTISADKSIRTAYLQWSSLKASDTAMYYCARHVTMIWGVIIDFWGQGTLVTVSS VL: AIQLTQSPSSLSASVGDRVTITCRASQGISSALAWYQQKPGKAPKLLIYDASSLESGVPSRFSGSGSGTDFTLTISSLQPEDFATYYCQQFNSYPFTFGPGTKVDIKR | Kd [2]: 2.1 nM; Kd [3]: 1.56 nM; koff [3]: 0.000101 s⁻¹; kon [3]: 64400 M⁻¹ s⁻¹
4.18 | 0.00191 | SI-63SF4 (H3 scFv-monoFc fusion protein) (Fc fusion, The entry is the whole scFv-monoFc chain; also called Humanized version 3 ScFv monoFc) ENVLTQSPASLSASPGERVTITCSASSSVSYMHWYQQKPGQAPKLWIYDTSKLASGVPSRFSGSGSGNDHTLTISSMEPEDFATYYCFQGSVYPFTFGQGTKLTVLGGGGSGGGGSGGGGSGGGGSQVTLKESGPGLVQPGQTLRLTCAFSGFSLSTSGMGVGWIRQPPGKGLEWLAHIWWDDDKRYNPALKSRLTISKDTSKNQVYLQMNSLDAEDTAVYYCARMELWSYYFDYWGQGTLVTVSSGGSSGSGSGSTGLVPRGSTSSSGTGTSAGTPVAGPSVFLFPPKPKDTLMISRTPEVTCVVVDVSHEDPEVKFNWYVDGVEVHNAKTKPREEQYASTYRVVSVLTVLHQDWLNGKEYKCKVSNKALPAPIEKTISKAKGQPREPQVYTLPPSRDELTKNQVSLRCHVKGFYPSDIAVEWESNGQPENNYKTTKPVLDSDGSFFLYSTLTVDKSRWQQGNVFSCSVLHEALHNHYTQKSLSLSPGKGSGLNDIFEAQKIEWHE | 
6.89 | 0.000184 | SI-63SF1 (H1 scFv-monoFc fusion protein) (Fc fusion, The entry is the whole scFv-monoFc chain; also called Humanized version 1 ScFv monoFc) ENVLTQSPASLSASPGERVTITCSASSSVSYMHWYQQKPGQAPKLWIYDTSKLASGVPSRFSGSGSGNDHTLTISSMEPEDFATYYCFQGSVYPFTFGQGTKLEIKGGGGSGGGGSGGGGSGGGGSQVTLKESGPGLVQPGQTLRLTCAFSGFSLSTSGMGVGWIRQPPGKGLEWLAHIWWDDDKRYNPALKSRLTISKDTSKNQVYLQMNSLDAEDTAVYYCARMELWSYYFDYWGQGTLVTVSSGGSSGSGSGSTGLVPRGSTSSSGTGTSAGTPVAGPSVFLFPPKPKDTLMISRTPEVTCVVVDVSHEDPEVKFNWYVDGVEVHNAKTKPREEQYASTYRVVSVLTVLHQDWLNGKEYKCKVSNKALPAPIEKTISKAKGQPREPQVYTLPPSRDELTKNQVSLRCHVKGFYPSDIAVEWESNGQPENNYKTTKPVLDSDGSFFLYSTLTVDKSRWQQGNVFSCSVLHEALHNHYTQKSLSLSPGKGSGLNDIFEAQKIEWHE | 
4.22 | 0.00181 | SI-63SF2 (H2 scFv-monoFc fusion protein) (Fc fusion, The entry is the whole scFv-monoFc chain; also called Humanized version 2 ScFv monoFc) ENVLTQSPASLSASPGERVTITCSASSSVSYMHWYQQKPGQAPKLWIYDTSKLASGVPSRFSGSGSGNDHTLTISSMEPEDFATYYCFQGSVYPFTFGQGTKITILGGGGSGGGGSGGGGSGGGGSQVTLKESGPGLVQPGQTLRLTCAFSGFSLSTSGMGVGWIRQPPGKGLEWLAHIWWDDDKRYNPALKSRLTISKDTSKNQVYLQMNSLDAEDTAVYYCARMELWSYYFDYWGQGTLVTVSSGGSSGSGSGSTGLVPRGSTSSSGTGTSAGTPVAGPSVFLFPPKPKDTLMISRTPEVTCVVVDVSHEDPEVKFNWYVDGVEVHNAKTKPREEQYASTYRVVSVLTVLHQDWLNGKEYKCKVSNKALPAPIEKTISKAKGQPREPQVYTLPPSRDELTKNQVSLRCHVKGFYPSDIAVEWESNGQPENNYKTTKPVLDSDGSFFLYSTLTVDKSRWQQGNVFSCSVLHEALHNHYTQKSLSLSPGKGSGLNDIFEAQKIEWHE | 
5.02 | 0.00187 | SI-63SF5 (H4 scFv-monoFc fusion protein) (Fc fusion, The entry is the whole scFv-monoFc chain; also called Humanized version 4 ScFv monoFc) ENVLTQSPASLSASPGERVTITCSASSSVSYMHWYQQKPGQAPKLWIYDTSKLASGVPSRFSGSGSGNDHTLTISSMEPEDFATYYCFQGSVYPFTFGQGTKVTVLGGGGSGGGGSGGGGSGGGGSQVTLKESGPGLVQPGQTLRLTCAFSGFSLSTSGMGVGWIRQPPGKGLEWLAHIWWDDDKRYNPALKSRLTISKDTSKNQVYLQMNSLDAEDTAVYYCARMELWSYYFDYWGQGTLVTVSSGGSSGSGSGSTGLVPRGSTSSSGTGTSAGTPVAGPSVFLFPPKPKDTLMISRTPEVTCVVVDVSHEDPEVKFNWYVDGVEVHNAKTKPREEQYASTYRVVSVLTVLHQDWLNGKEYKCKVSNKALPAPIEKTISKAKGQPREPQVYTLPPSRDELTKNQVSLRCHVKGFYPSDIAVEWESNGQPENNYKTTKPVLDSDGSFFLYSTLTVDKSRWQQGNVFSCSVLHEALHNHYTQKSLSLSPGKGSGLNDIFEAQKIEWHE | 
5.68 | 0.000339 | SI-63SF6 (H5 scFv-monoFc fusion protein) (Fc fusion, The entry is the whole scFv-monoFc chain; also called Humanized version 5 ScFv monoFc) EIVMTQSPSTLSASVGDRVIITCSASSSVSYMHWYQQKPGKAPKLLIYDTSKLASGVPSRFSGSGSGAEFTLTISSLQPDDFATYYCFQGSVYPFTFGQGTKLTVLGGGGSGGGGSGGGGSGGGGSEVQLVESGGGLVQPGGSLRLSCVFSGFSLSTSGMGVGWVRQAPGKGLEWVGHIWWDDDKRYNPALKSRFTISRDTSKNTVYLQMNSLRAEDTAVYYCARMELWSYYFDYWGQGTLVTVSSGSSGSGSGSTGLVPRGSTSSSGTGTSAGTPVAGPSVFLFPPKPKDTLMISRTPEVTCVVVDVSHEDPEVKFNWYVDGVEVHNAKTKPREEQYASTYRVVSVLTVLHQDWLNGKEYKCKVSNKALPAPIEKTISKAKGQPREPQVYTLPPSRDELTKNQVSLRCHVKGFYPSDIAVEWESNGQPENNYKTTKPVLDSDGSFFLYSTLTVDKSRWQQGNVFSCSVLHEALHNHYTQKSLSLSPGKGSGLNDIFEAQKIEWHE | kon (His-tagged human CD19 [4]): 59700 M⁻¹ s⁻¹
5.37 | 0.000377 | SI-63SF7 (H6 scFv-monoFc fusion protein) (Fc fusion, The entry is the whole scFv-monoFc chain; also called Humanized version 6 ScFv mono Fc) EIVMTQSPSTLSASVGDRVIITCSASSSVSYMHWYQQKPGKAPKLLIYDTSKLASGVPSRFSGSGSGAEFTLTISSLQPDDFATYYCFQGSVYPFTFGQGTKLTVLGGGGSGGGGSGGGGSGGGGSEVQLVESGGGLVQPGGSLRLSCSFSGFSLSTSGMGVGWVRQAPGKGLEWVGHIWWDDDKRYNPALKSRFTISRDTSKNTVYLQMNSLRAEDTAVYYCARMELWSYYFDYWGQGTLVTVSSGSSGSGSGSTGLVPRGSTSSSGTGTSAGTPVAGPSVFLFPPKPKDTLMISRTPEVTCVVVDVSHEDPEVKFNWYVDGVEVHNAKTKPREEQYASTYRVVSVLTVLHQDWLNGKEYKCKVSNKALPAPIEKTISKAKGQPREPQVYTLPPSRDELTKNQVSLRCHVKGFYPSDIAVEWESNGQPENNYKTTKPVLDSDGSFFLYSTLTVDKSRWQQGNVFSCSVLHEALHNHYTQKSLSLSPGKGSGLNDIFEAQKIEWHE | kon (His-tagged human CD19 [4]): 70200 M⁻¹ s⁻¹
